From paper PMC3082896

Test system: LdTOP1L/S large subunit (LdTOP1L);LdTOP1L/S small subunit (LdTOP1S) (Leishmania donovani;Leishmania donovani)
Assay: EMSA

## GAAAAAAGACTTAGAAAAATTTTTA (double strand)
  binding signal (% of input DNA bound): 79
